Here are results for 20 molecules from US20180016342A1 (published 2018).

Assay [1] addresses membrane-bound IL6R on human cells (U266, XG-1, TF-1) (human) (UniProt P08887). In words: cell-based or functional assay.
In assay [2] the target is T1, human soluble IL6-R (human, UniProt P08887 20-358).
T1 chain: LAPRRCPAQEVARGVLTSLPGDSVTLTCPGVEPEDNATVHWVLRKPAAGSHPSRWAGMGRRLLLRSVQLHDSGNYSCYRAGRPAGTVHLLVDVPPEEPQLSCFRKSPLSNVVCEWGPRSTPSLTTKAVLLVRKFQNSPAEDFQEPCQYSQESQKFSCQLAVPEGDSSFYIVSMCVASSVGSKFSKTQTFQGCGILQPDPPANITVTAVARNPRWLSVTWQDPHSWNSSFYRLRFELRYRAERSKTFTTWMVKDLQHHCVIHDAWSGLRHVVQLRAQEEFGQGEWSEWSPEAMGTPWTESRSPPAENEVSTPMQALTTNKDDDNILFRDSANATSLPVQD
In words: Alphascreen inhibition of IL6/IL6-R interaction. A general note: Bead proximity is the source of the signal in Alpha formats.

Assay [3] concerns the target T2, soluble IL6-R in cynomolgus plasma (cynomolgus monkey, UniProt A0A2K5WN54 60-386).
T2 chain: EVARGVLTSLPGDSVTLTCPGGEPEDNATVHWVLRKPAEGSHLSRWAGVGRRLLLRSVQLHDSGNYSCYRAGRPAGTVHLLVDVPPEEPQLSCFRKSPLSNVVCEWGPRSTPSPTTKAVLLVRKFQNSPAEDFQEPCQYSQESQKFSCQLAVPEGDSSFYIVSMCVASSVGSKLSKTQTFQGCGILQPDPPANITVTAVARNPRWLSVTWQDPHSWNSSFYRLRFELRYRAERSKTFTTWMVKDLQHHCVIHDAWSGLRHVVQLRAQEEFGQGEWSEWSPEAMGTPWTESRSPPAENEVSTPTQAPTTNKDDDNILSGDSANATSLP
Nature of the assay: ELISA inhibition of IL-6 binding to plasma sIL6R; cyno plasma, 50 ng/mL IL-6. For orientation: An ELISA detects its analyte on a solid surface through an enzyme-linked reagent.

In assay [4] the target is T1, human soluble IL6-R. Nature of the assay: Alphascreen inhibition of IL6/IL6-R interaction.
Assay [5] has as its target T1, human soluble IL6-R. Nature of the assay: Alphascreen inhibition of IL6/IL6-R interaction; printed LOGEC50 -9.833.
Assay [6] concerns the target T1, human soluble IL6-R. Nature of the assay: Alphascreen inhibition of IL6/IL6-R interaction.
The target of assay [7] is T1, human soluble IL6-R. In words: Alphascreen inhibition of IL6/IL6-R interaction.

As for MAb BR-6 (antibody), in assay [1], the IC50 (+1% HSA), TF-1 proliferation assay, 200 pg/ml IL-6 is 0.088; the IC50 (nM), XG-1 cell based assay was 0.064 nM; the IC50 (w/o HSA), TF-1 proliferation assay, 200 pg/ml IL-6 turned out to be 0.042.
In the case of MAb BN-12 (antibody), the IC50 (nM), XG-1 cell based assay in assay [1] stood at 0.272 nM.

B1: IL6R03 (VHH)
VHH: EVQLVESGGGLVQAGGSLRLSCAASGSIFKVNAMGWYRQAPGKQRELVAGIISGGSTNYADSVKGRLTISRDNAKNTVYLQMNSLKPEDTAVYYCSFVTTNSDYDLGRDYWGQGTQVTVSS
As for B1, the results for the EC50 (with human soluble IL6-R [2]; in assay [3]; in the assay with human soluble IL6-R [4]) were 0.105 nM, 5.88 nM and 0.187 nM, respectively.

B2: IL6R61 (VHH)
VHH: EVQLVESGGGLVQPGGSLRLSCAASGSIFKVNAMGWYRQAPGKGRELVAGIISGGSTNYADSVKGRLTISRDNAKNTVYLQMNSLRPEDTAVYYCSFVTTNSDYDLGRDYWGQGTLVTVSS
In the case of B2, a half-maximal response in the assay with human soluble IL6-R [4] (EC50) required 0.336 nM.

B3: IL6R63 (VHH)
VHH: EVQLVESGGGLVQPGGSLRLSCAASGSIFKVNAMGWYRQAPGKGRELVAGIISGGSTNYADSVKGRLTISRDNAKNTLYLQMNSLRPEDTAVYYCSFVTTNSDYDLGRDYWGQGTLVTVSS
Consider B3, for which, in the assay with human soluble IL6-R [4], the concentration for a half-maximal effect (EC50) (commonly the concentration that produces a half-maximal response) came to 0.65 nM.

B4: IL6R62 (VHH)
VHH: EVQLVESGGGLVQPGGSLRLSCAASGSIFKVNAMGWYRQAPGKGRELVAGIISGGSTNYADSVKGRFTISRDNAKNTVYLQMNSLRPEDTAVYYCSFVTTNSDYDLGRDYWGQGTLVTVSS
In turn, B4 returned an EC50 in the assay with human soluble IL6-R [4] of 0.28 nM.

B5: IL6R65 (VHH)
VHH: EVQLVESGGGLVQPGGSLRLSCAASGSIFKVNAMGWYRQAPGKGRELVAGIISGGSTNYADSVKGRFTISRDNAKNTLYLQMNSLRPEDTAVYYCAFVTTNSDYDLGRDYWGQGTLVTVSS
On to B5, for which the EC50 was 0.105 nM with human soluble IL6-R [5] and 4.91 nM in assay [3].

B6: IL6R64 (VHH)
VHH: EVQLVESGGGLVQPGGSLRLSCAASGSIFKVNAMGWYRQAPGKGRELVAGIISGGSTNYADSVKGRLTISRDNAKNTVYLQMNSLRPEDTAVYYCAFVTTNSDYDLGRDYWGQGTLVTVSS
For the molecule B6, the concentration for a half-maximal effect (EC50) with human soluble IL6-R [4] stood at 0.108 nM.

B7: IL6R84 (VHH)
VHH: EVQLVESGGGLVQPGGSLRLSCAASGFTFDDYGMSWVRQAPGKGLEWVSAISWNGNNTYYTESMKGRFTISRDNAKNTLYLQMNSLRPEDTAVYYCVKGSTAIVGVPPTYPDEYDYWGQGTLVTVSS
Consider B7, for which a half-maximal response in the assay with human soluble IL6-R [6] (EC50) required 0.465 nM.

B8: IL6R13 (VHH)
VHH: EVQLVESGGGLVQPGGSLRLSCAASGFTFDDYGMSWVRQAPGRATEWVSAISWNGNNTYYTESMKGRFTISRDNAKNTVYLQMNSLKPEDTAVYYCVKGSTAIVGVPPTYPDEYDYWGQGTQVTVSS
As for B8, the EC50 stood at 0.0505 nM with human soluble IL6-R [2], 11.7 nM in assay [3] and 0.0644 nM with human soluble IL6-R [6].

B9: IL6R81 (VHH)
VHH: EVQLVESGGGLVQPGGSLRLSCAASGFTFDDYGMSWVRQAPGRATEWVSAISWNGNNTYYTESMKGRFTISRDNAKNTVYLQMNSLRPEDTAVYYCVKGSTAIVGVPPTYPDEYDYWGQGTLVTVSS
For B9, the 50% effective concentration (EC50) with human soluble IL6-R [6] was 0.0747 nM.

B10: IL6R88 (VHH)
VHH: EVQLVESGGGLVQPGGSLRLSCAASGFTFDDYGMSWVRQAPGKGTEWVSAISWNGNNTYYTESMKGRFTISRDNAKNTLYLQMNSLRPEDTAVYYCVKGSTAIVGVPPTYPDEYDYWGQGTLVTVSS
Take B10: the values for the EC50 (in the assay with human soluble IL6-R [2]; in assay [3]) were 0.0727 nM and 23.3 nM, respectively.

B11: IL6R82 (VHH)
VHH: EVQLVESGGGLVQPGGSLRLSCAASGFTFDDYGMSWVRQAPGKGLEWVSAISWNGNNTYYTESMKGRFTISRDNAKNTVYLQMNSLRPEDTAVYYCVKGSTAIVGVPPTYPDEYDYWGQGTLVTVSS
In the case of B11, in the assay with human soluble IL6-R [6], a half-maximal response (EC50) required 0.476 nM.

B12: IL6R83 (VHH)
VHH: EVQLVESGGGLVQPGGSLRLSCAASGFTFDDYGMSWVRQAPGRATEWVSAISWNGNNTYYTESMKGRFTISRDNAKNTLYLQMNSLRPEDTAVYYCVKGSTAIVGVPPTYPDEYDYWGQGTLVTVSS
Turning to B12, in the assay with human soluble IL6-R [6], the EC50 was determined as 0.0779 nM.

B13: IL6R04 (VHH)
VHH: EVQLVESGGGLVQAGGSLRLSCAASGFTFDDYDIGWFRQAPGKEREGVSGISSSDGNTYYADSVKGRFTISSDNAKNTVYLQMNSLKPEDTAVYYCAAEPPDSSWYLDGSPEFFKYWGQGTQVTVSS
Consider B13, for which the EC50 in the assay with human soluble IL6-R [2] came out at 0.0568 nM; in assay [3], 36.9 nM; in the assay with human soluble IL6-R [7] it was 0.18 nM.

B14: IL6R75 (VHH)
VHH: EVQLVESGGGLVQPGGSLRLSCAASGFTFSDYDIGWFRQAPGKGREGVSGISSSDGNTYYADSVKGRFTISRDNAKNTLYLQMNSLRPEDTAVYYCAAEPPDSSWYLDGSPEFFKYWGQGTLVTVSS
In turn, B14 showed a half-maximal effective concentration (EC50) in the assay with human soluble IL6-R [2] of 0.0432 nM.

B15: IL6R71 (VHH)
VHH: EVQLVESGGGLVQPGGSLRLSCAASGFTFDDYDIGWFRQAPGKGREGVSGISSSDGNTYYADSVKGRFTISSDNAKNTVYLQMNSLRPEDTAVYYCAAEPPDSSWYLDGSPEFFKYWGQGTLVTVSS
For B15, the EC50 with human soluble IL6-R [7] came out at 0.153 nM.

B16: IL6R72 (VHH)
VHH: EVQLVESGGGLVQPGGSLRLSCAASGFTFSDYDIGWFRQAPGKGREGVSGISSSDGNTYYADSVKGRFTISSDNAKNTVYLQMNSLRPEDTAVYYCAAEPPDSSWYLDGSPEFFKYWGQGTLVTVSS
Take B16: the EC50 in the assay with human soluble IL6-R [7] amounted to 0.16 nM.

B17: IL6R73 (VHH)
VHH: EVQLVESGGGLVQPGGSLRLSCAASGFTFDDYDIGWFRQAPGKGREGVSGISSSDGNTYYADSVKGRFTISRDNAKNTVYLQMNSLRPEDTAVYYCAAEPPDSSWYLDGSPEFFKYWGQGTLVTVSS
Molecule B17 displayed an EC50 with human soluble IL6-R [7] of 0.0916 nM.

B18: IL6R74 (VHH)
VHH: EVQLVESGGGLVQPGGSLRLSCAASGFTFDDYDIGWFRQAPGKGREGVSGISSSDGNTYYADSVKGRFTISSDNAKNTLYLQMNSLRPEDTAVYYCAAEPPDSSWYLDGSPEFFKYWGQGTLVTVSS
B18 returned an EC50 with human soluble IL6-R [7] of 0.133 nM.
